These results are taken from paper PMC12354883.

The experiment deals with 5c.c7 TCR on 5c.c7 αβ TCR-transgenic CD4+ T-cells (mouse). Description: flow cytometry on cells; time curve: T-cells labeled with AF555-H57-scFV (1800 ng per 1 Mio T-cells), washed, kept on ice, at room temperature or at 37 °C; samples taken after 0, 5, 10, 30, 60 and 120 min. On the technique in general: In flow cytometry, cells or beads pass a laser one at a time.

Where only a bound is given, the exact number is not on record here.

With “fluorescently labeled H57 scFV (J1), TCR β-reactive H57 single-chain fragment”, the time after which 50% of receptor:ligand bonds are still intact, room temperature was above 3 h.
